Reference: publication PMC9352680, “A comprehensive thermodynamic model for RNA binding by the Saccharomyces cerevisiae Pumilio protein PUF4”

T1: PUF4 RNA-binding domain (Saccharomyces cerevisiae, UniProt P25339 537-888)
T1 sequence: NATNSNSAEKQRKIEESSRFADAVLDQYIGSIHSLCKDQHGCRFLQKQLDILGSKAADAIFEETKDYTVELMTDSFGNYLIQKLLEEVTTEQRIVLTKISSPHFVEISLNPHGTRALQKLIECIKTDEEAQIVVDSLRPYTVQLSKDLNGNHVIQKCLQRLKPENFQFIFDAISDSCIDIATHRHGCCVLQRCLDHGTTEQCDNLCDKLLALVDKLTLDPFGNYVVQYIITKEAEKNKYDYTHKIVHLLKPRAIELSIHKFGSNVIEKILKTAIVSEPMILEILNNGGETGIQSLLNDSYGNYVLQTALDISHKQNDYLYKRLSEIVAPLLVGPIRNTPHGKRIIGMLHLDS


Molecular target: T1, PUF4 RNA-binding domain
Assay: Mg; RNA-MaP; 20 mM Na-HEPES pH 7.4, 30 mM KOAc, 0.75 mM MgCl2, 0.1% Tween-20, 5% glycerol, 0.1 mg/mL BSA, 2 mM DTT; 25 C; 0.0125-409.6 nM protein
Settings: tags: N-His6-TEV cleaved; C-SNAP kept, Cy3B-labelled; label: tethered on chip by stalled RNA polymerase

Row | Binder | Kd
1 | Ic_S4_P4E.1_K4.1_C4.1_H4.1_A4.1_[T5C]_[A6C]_F4.1_[T8C]_[A9C]_T4.1 (ssRNA) RNA: UUUGACAACUGAUCGUUCUUUCUUGUACCUCCUUCUUUCUCGAUCAGUUGUCUUU | 91.4 nM
2 | Ic_S4_P4E.1_K4.1_C4.1_H4.1_A4.1_[T5C]_[A6C]_F4.1_[T8A]_[A9T]_T4.1 (ssRNA) RNA: UUUGACAACUGAUCGUUCUUUCUUGUACCUAUUUCUUUCUCGAUCAGUUGUCUUU | 12.9 nM
3 | Ic_S4_P4E.1_K4.1_C4.1_H4.1_A4.1_[T5C]_[A6T]_[T7C]_F4.1_[A9C]_T4.1 (ssRNA) RNA: UUUGACAACUGAUCGUUCUUUCUUGUACUCUCUUCUUUCUCGAUCAGUUGUCUUU | 23.3 nM
4 | Ic_S4_P4E.1_K4.1_C4.1_H4.1_A4.1_[T5C]_[A6T]_[T7A]_F4.1_[T8A]_[A9C]_T4.1 (ssRNA) RNA: UUUGACAACUGAUCGUUCUUUCUUGUACUAACUUCUUUCUCGAUCAGUUGUCUUU | 404 nM
5 | Ic_S4_P4E.1_K4.1_C4.1_H4.1_A4.1_[T5C]_[A6T]_[T7C]_F4.1_[T8C]_[A9G]_T4.1 (ssRNA) RNA: UUUGACAACUGAUCGUUCUUUCUUGUACUCCGUUCUUUCUCGAUCAGUUGUCUUU | 552 nM
6 | Ic_S4_P4E.1_K4.1_C4.1_H4.1_A4.1_[T5C]_[A6T]_[T7C]_F4.1_[T8C]_[A9C]_T4.1 (ssRNA) RNA: UUUGACAACUGAUCGUUCUUUCUUGUACUCCCUUCUUUCUCGAUCAGUUGUCUUU | 394 nM
7 | Ic_S4_P4E.1_K4.1_C4.1_H4.1_A4.1_[T5C]_[A6T]_[T7A]_F4.1_[T8A]_T4.1 (ssRNA) RNA: UUUGACAACUGAUCGUUCUUUCUUGUACUAAAUUCUUUCUCGAUCAGUUGUCUUU | 21.7 nM
8 | Ic_S4_P4E.1_K4.1_C4.1_H4.1_A4.1_[T5C]_[A6T]_[T7G]_F4.1_T4.1 (ssRNA) RNA: UUUGACAACUGAUCGUUCUUUCUUGUACUGUAUUCUUUCUCGAUCAGUUGUCUUU | 3.86 nM
9 | Ic_S4_P4E.1_K4.1_C4.1_H4.1_A4.1_[T5C]_[A6T]_[T7A]_F4.1_[A9C]_T4.1 (ssRNA) RNA: UUUGACAACUGAUCGUUCUUUCUUGUACUAUCUUCUUUCUCGAUCAGUUGUCUUU | 15.8 nM
10 | Ic_S4_P4E.1_K4.1_C4.1_H4.1_A4.1_[T5C]_[A6T]_[T7C]_F4.1_[T8A]_[A9G]_T4.1 (ssRNA) RNA: UUUGACAACUGAUCGUUCUUUCUUGUACUCAGUUCUUUCUCGAUCAGUUGUCUUU | 819 nM
11 | Ic_S4_P4E.1_K4.1_C4.1_H4.1_A4.1_[T5C]_[A6T]_[T7A]_F4.1_[T8C]_[A9G]_T4.1 (ssRNA) RNA: UUUGACAACUGAUCGUUCUUUCUUGUACUACGUUCUUUCUCGAUCAGUUGUCUUU | 563 nM
12 | Ic_S4_P4E.1_K4.1_C4.1_H4.1_A4.1_[T5C]_[A6T]_[T7G]_F4.1_[T8C]_[A9G]_T4.1 (ssRNA) RNA: UUUGACAACUGAUCGUUCUUUCUUGUACUGCGUUCUUUCUCGAUCAGUUGUCUUU | 916 nM
13 | Ic_S4_P4E.1_K4.1_C4.1_H4.1_A4.1_[T5C]_[A6T]_[T7A]_F4.1_[T8C]_[A9T]_T4.1 (ssRNA) RNA: UUUGACAACUGAUCGUUCUUUCUUGUACUACUUUCUUUCUCGAUCAGUUGUCUUU | 58.3 nM
14 | Ic_S4_P4E.1_K4.1_C4.1_H4.1_A4.1_[T5C]_[A6T]_[T7G]_F4.1_[T8C]_T4.1 (ssRNA) RNA: UUUGACAACUGAUCGUUCUUUCUUGUACUGCAUUCUUUCUCGAUCAGUUGUCUUU | 786 nM
15 | Ic_S4_P4E.1_K4.1_C4.1_H4.1_A4.1_[T5C]_[A6C]_F4.1_T4.1 (ssRNA) RNA: UUUGACAACUGAUCGUUCUUUCUUGUACCUUAUUCUUUCUCGAUCAGUUGUCUUU | 1.74 nM
16 | Ic_S4_P4E.1_K4.1_C4.1_H4.1_A4.1_[T5C]_[A6T]_[T7C]_F4.1_[T8A]_T4.1 (ssRNA) RNA: UUUGACAACUGAUCGUUCUUUCUUGUACUCAAUUCUUUCUCGAUCAGUUGUCUUU | 96.2 nM
17 | Ic_S4_P4E.1_K4.1_C4.1_H4.1_A4.1_[T5C]_[A6C]_F4.1_[T8A]_[A9C]_T4.1 (ssRNA) RNA: UUUGACAACUGAUCGUUCUUUCUUGUACCUACUUCUUUCUCGAUCAGUUGUCUUU | 75.8 nM
18 | Ic_S4_P4E.1_K4.1_C4.1_H4.1_A4.1_[T5C]_[T7G]_F4.1_[A9G]_T4.1 (ssRNA) RNA: UUUGACAACUGAUCGUUCUUUCUUGUACAGUGUUCUUUCUCGAUCAGUUGUCUUU | 9.03 nM
19 | Ic_S4_P4E.1_K4.1_C4.1_H4.1_A4.1_[T5C]_[A6C]_F4.1_[A9T]_T4.1 (ssRNA) RNA: UUUGACAACUGAUCGUUCUUUCUUGUACCUUUUUCUUUCUCGAUCAGUUGUCUUU | 10.8 nM

Row | Binder | Kd
20 | Ic_S4_P4E.1_K4.1_C4.1_H4.1_A4.1_[T5C]_[A6T]_F4.1_[T8A]_[A9C]_T4.1 (ssRNA) RNA: UUUGACAACUGAUCGUUCUUUCUUGUACUUACUUCUUUCUCGAUCAGUUGUCUUU | 108 nM
21 | Ic_S4_P4E.1_K4.1_C4.1_H4.1_A4.1_[T5C]_[A6T]_[T7G]_F4.1_[T8G]_[A9T]_T4.1 (ssRNA) RNA: UUUGACAACUGAUCGUUCUUUCUUGUACUGGUUUCUUUCUCGAUCAGUUGUCUUU | 975 nM
22 | Ic_S4_P4E.1_K4.1_C4.1_H4.1_A4.1_[T5C]_[A6T]_F4.1_[A9C]_T4.1 (ssRNA) RNA: UUUGACAACUGAUCGUUCUUUCUUGUACUUUCUUCUUUCUCGAUCAGUUGUCUUU | 13.1 nM
23 | Ic_S4_P4E.1_K4.1_C4.1_H4.1_A4.1_[T5C]_[A6T]_[T7G]_F4.1_[A9T]_T4.1 (ssRNA) RNA: UUUGACAACUGAUCGUUCUUUCUUGUACUGUUUUCUUUCUCGAUCAGUUGUCUUU | 54.6 nM
24 | Ic_S4_P4E.1_K4.1_C4.1_H4.1_A4.1_[T5C]_[A6T]_F4.1_[T8C]_[A9C]_T4.1 (ssRNA) RNA: UUUGACAACUGAUCGUUCUUUCUUGUACUUCCUUCUUUCUCGAUCAGUUGUCUUU | 94.5 nM
25 | Ic_S4_P4E.1_K4.1_C4.1_H4.1_A4.1_[T5C]_[A6T]_[T7C]_F4.1_[T8G]_[A9T]_T4.1 (ssRNA) RNA: UUUGACAACUGAUCGUUCUUUCUUGUACUCGUUUCUUUCUCGAUCAGUUGUCUUU | 138 nM
26 | Ic_S4_P4E.1_K4.1_C4.1_H4.1_A4.1_[T5C]_[T7G]_F4.1_[A9C]_T4.1 (ssRNA) RNA: UUUGACAACUGAUCGUUCUUUCUUGUACAGUCUUCUUUCUCGAUCAGUUGUCUUU | 22.9 nM
27 | Ic_S4_P4E.1_K4.1_C4.1_H4.1_A4.1_[T5C]_[A6T]_F4.1_[A9T]_T4.1 (ssRNA) RNA: UUUGACAACUGAUCGUUCUUUCUUGUACUUUUUUCUUUCUCGAUCAGUUGUCUUU | 6.37 nM
28 | Ic_S4_P4E.1_K4.1_C4.1_H4.1_A4.1_[T5C]_[T7G]_F4.1_[T8C]_T4.1 (ssRNA) RNA: UUUGACAACUGAUCGUUCUUUCUUGUACAGCAUUCUUUCUCGAUCAGUUGUCUUU | 69.5 nM
29 | Ic_S4_P4E.1_K4.1_C4.1_H4.1_A4.1_[T5C]_[T7G]_F4.1_[T8C]_[A9C]_T4.1 (ssRNA) RNA: UUUGACAACUGAUCGUUCUUUCUUGUACAGCCUUCUUUCUCGAUCAGUUGUCUUU | 89.4 nM
30 | Ic_S4_P4E.1_K4.1_C4.1_H4.1_A4.1_[T5C]_[T7C]_F4.1_[T8G]_[A9C]_T4.1 (ssRNA) RNA: UUUGACAACUGAUCGUUCUUUCUUGUACACGCUUCUUUCUCGAUCAGUUGUCUUU | 90.1 nM
31 | Ic_S4_P4E.1_K4.1_C4.1_H4.1_A4.1_[T5C]_[T7G]_F4.1_[T8C]_[A9T]_T4.1 (ssRNA) RNA: UUUGACAACUGAUCGUUCUUUCUUGUACAGCUUUCUUUCUCGAUCAGUUGUCUUU | 55.1 nM
32 | Ic_S4_P4E.1_K4.1_C4.1_H4.1_A4.1_[T5C]_[A6T]_F4.1_[T8C]_[A9T]_T4.1 (ssRNA) RNA: UUUGACAACUGAUCGUUCUUUCUUGUACUUCUUUCUUUCUCGAUCAGUUGUCUUU | 32.5 nM
33 | Ic_S4_P4E.1_K4.1_C4.1_H4.1_A4.1_[T5C]_[A6C]_F4.1_[T8A]_T4.1 (ssRNA) RNA: UUUGACAACUGAUCGUUCUUUCUUGUACCUAAUUCUUUCUCGAUCAGUUGUCUUU | 15.7 nM
34 | Ic_S4_P4E.1_K4.1_C4.1_H4.1_A4.1_[T5C]_[A6T]_[T7A]_F4.1_[T8C]_T4.1 (ssRNA) RNA: UUUGACAACUGAUCGUUCUUUCUUGUACUACAUUCUUUCUCGAUCAGUUGUCUUU | 279 nM
35 | UCUCUUUGUACAUAAUCUCUU (ssRNA) [Ic_S1_P4E.1_K4.1_C4.1_H4.1_A4.1_[T5C]_F4.1_[T8A]_T4.1] | 6.09 nM
36 | UCUCUUUGUAAAUCAUCUCUU (ssRNA) [Ib_S1_P4E.1_K4.1_C4.1_H4.1_A4.1_[T5A]_F4.1_[T8C]_T4.1] | 39.1 nM
37 | UCUCUUUGUAUCUGAUCUCUU (ssRNA) [Ic_S1_P4E.1_K4.1_C4.1_H4.1_A4.1_[A6C]_F4.1_[T8G]_T4.1] | 76.5 nM
38 | UCUCUUUGUACAUCAUCUCUU (ssRNA) [Ic_S1_P4E.1_K4.1_C4.1_H4.1_A4.1_[T5C]_F4.1_[T8C]_T4.1] | 8.45 nM
